Reference: PMC13208732
One block for each substance: values may come before it.

Experiments:
[1] = molecular target: human vascular endothelial growth factor A, isoform VEGFA165 (human) (UniProt P15692); experiment: ELISA; competition with NRP1, no heparin
[2] = molecular target: human vascular endothelial growth factor A, isoform VEGFA165 (human) (UniProt P15692); experiment: ELISA; competition with VEGFR1, no heparin
[3] = molecular target: human vascular endothelial growth factor A, isoform VEGFA165 (Homo sapiens); experiment: ELISA; competition with biotinylated NRP1, no heparin; settings: Fc fusion
Sequence of human vascular endothelial growth factor A, isoform VEGFA165 (Homo sapiens) (P15692 other isoform, or with tags, fused parts or gaps): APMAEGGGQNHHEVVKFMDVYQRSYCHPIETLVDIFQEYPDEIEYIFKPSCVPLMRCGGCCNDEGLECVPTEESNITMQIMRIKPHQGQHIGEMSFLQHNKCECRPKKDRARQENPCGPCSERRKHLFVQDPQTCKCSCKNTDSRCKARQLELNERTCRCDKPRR

[4] = molecular target: human vascular endothelial growth factor A, isoform VEGFA165 (Homo sapiens); experiment: ELISA; competition with biotinylated VEGFR1, no heparin; settings: Fc fusion

Sequence of human vascular endothelial growth factor A, isoform VEGFA165 (human) (P15692 other isoform, or with tags, fused parts or gaps): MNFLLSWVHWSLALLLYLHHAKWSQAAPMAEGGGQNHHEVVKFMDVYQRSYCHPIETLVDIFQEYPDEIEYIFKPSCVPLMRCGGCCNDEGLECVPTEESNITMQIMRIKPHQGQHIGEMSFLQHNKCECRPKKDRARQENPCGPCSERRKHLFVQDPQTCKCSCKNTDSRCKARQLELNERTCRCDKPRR
Sequence of VEGFR1 domains 1 to 6 fused to a C-terminal Fc, biotinylated (P17948 27-654): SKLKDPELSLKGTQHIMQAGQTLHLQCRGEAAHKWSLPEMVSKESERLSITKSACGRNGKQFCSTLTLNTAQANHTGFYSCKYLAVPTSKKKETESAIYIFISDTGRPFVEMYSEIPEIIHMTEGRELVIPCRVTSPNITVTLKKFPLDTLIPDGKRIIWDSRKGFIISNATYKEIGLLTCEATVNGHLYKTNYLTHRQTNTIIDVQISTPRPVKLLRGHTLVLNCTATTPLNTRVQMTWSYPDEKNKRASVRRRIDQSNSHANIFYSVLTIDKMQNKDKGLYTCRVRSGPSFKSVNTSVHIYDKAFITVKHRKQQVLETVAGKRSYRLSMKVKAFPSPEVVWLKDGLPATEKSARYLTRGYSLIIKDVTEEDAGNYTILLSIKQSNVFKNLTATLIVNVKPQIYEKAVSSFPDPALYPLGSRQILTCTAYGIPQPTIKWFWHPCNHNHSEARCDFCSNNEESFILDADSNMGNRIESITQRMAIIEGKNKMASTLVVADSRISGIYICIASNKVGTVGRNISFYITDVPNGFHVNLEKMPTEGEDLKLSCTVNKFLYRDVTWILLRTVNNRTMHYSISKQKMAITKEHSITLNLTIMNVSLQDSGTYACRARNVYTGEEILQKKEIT

- IC50 [1]: 1.9 nM
- IC50 [2]: 58.2 nM
Substance: G6-31

Substance: NRP1 receptor domains α1α2β1β2 fused to a C-terminal Fc, biotinylated (from UniProt O14786 22-583)
- IC50 [3]: 52.8 nM

- IC50 [4]: 16.3 nM
Substance: VEGFR1 domains 1 to 6 fused to a C-terminal Fc, biotinylated (from UniProt P17948 27-654)
